Laboratory results reported in PMC11106768, “Synthetic Vesicles for Sustainable Energy Recycling and Delivery of Building Blocks for Lipid Biosynthesis” (ACS Synthetic Biology, 2024).

Key:
[1] = target: T1, E. coli GlpT (Escherichia coli, UniProt P08194); experiment: GlpT-dependent export from feeder vesicles, read by LC-MS of DOPA formed in utilizer vesicles; type: biochemical; conditions: antiport with external Pi, 50 mM KPi pH 7.0, 30 °C; indirect read-out
T1 construct: plasmid pBADmycHisB-glpT, expressed in E. coli MC1061, Ni-Sepharose and size exclusion in DDM, coreconstituted with L. sakei ArcD in vesicles; 54 kDa
T1 sequence (P08194 1-452): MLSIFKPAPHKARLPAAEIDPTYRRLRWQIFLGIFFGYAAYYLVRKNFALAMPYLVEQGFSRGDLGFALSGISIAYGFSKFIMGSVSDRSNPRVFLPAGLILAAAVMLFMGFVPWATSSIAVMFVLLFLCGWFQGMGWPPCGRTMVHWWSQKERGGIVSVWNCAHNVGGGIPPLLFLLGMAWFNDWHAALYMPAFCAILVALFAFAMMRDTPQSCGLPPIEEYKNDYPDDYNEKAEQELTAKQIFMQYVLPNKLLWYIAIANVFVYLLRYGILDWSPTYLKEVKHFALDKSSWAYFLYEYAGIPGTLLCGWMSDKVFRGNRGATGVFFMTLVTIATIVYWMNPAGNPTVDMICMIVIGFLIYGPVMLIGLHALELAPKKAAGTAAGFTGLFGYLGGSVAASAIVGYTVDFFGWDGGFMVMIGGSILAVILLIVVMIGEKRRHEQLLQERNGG

[2] = substrate: N=C(N)NCCC[C@H](N)C(=O)O; experiment: cells, lysate or membranes; conditions: pH 7.0; 20.0 °C
[3] = substrate: N=C(N)NCCC[C@H](N)C(=O)O; experiment: cells, lysate or membranes; parameters: species or system L. lactis JP9000 ΔarcD1ΔarcD2; Radiolabeled L-arginine uptake in L-ornithine-loaded whole cells, filtration and scintillation counting; conditions: pH 7.0; 20.0 °C
Method: The arcD and arcE genes were cloned into nisin A-based expression vectors and flanked by a 10× His-tag at either the N- or the C-terminus. The constructs were transformed into L. lactis JP9000 ΔarcD1ΔarcD2[24] and the expression was optimized. […] All of these proteins were tested for L-arginine transport activity in vivo (Figure S4). […] By assuming a similar level of expression as the original ArcD2, ArcD from L. sakei would have a 10-fold higher turnover number and was therefore chosen for further in vitro characterization (Table S4). The genes encoding arcD/E were PCR-amplified from the source DNA templates with Phusion high-fidelity DNA polymerase (Thermo Fisher Scientific) and customized primers (Eurofins Genomics, Table S3). Next, fragment exchange (FX)[36] was exploited to clone the genes of interest into pNZ-N(His) or pNZ-C(His) vectors suitable for overexpression in L. lactis strains. According to the procedure, the PCR amplification products were first cloned into a sequencing vector (pINITIAL). To this end, both the insets and the backbone (1:5 molar ratio) were digested with 2.5 U of SapI (New England Biolabs) for 1 h at 37 °C, followed by a heat inactivation step at 60 °C for 20 min. Ligation was carried out by adding 5 U of T4 ligase (New England Biolabs) and incubating for 1 h at RT. […]

[4] = substrate: N=C(N)NCCC[C@H](N)C(=O)O; experiment: radiolabelled uptake into L-ornithine-loaded proteoliposomes, Michaelis-Menten fit; type: biochemical, Latilactobacillus sakei; conditions: 50 mM KPi pH 7.0, 2 mM DTT, 30 °C, internal L-ornithine 10 mM, external L-arginine 1-100 μM, labelled compound
Method: radiolabelled uptake into L-ornithine-loaded proteoliposomes, Michaelis-Menten fit on L. sakei ArcD | the affinity constant (KM) and turnover number (kcat) were determined for the L. sakei antiporter

Q: For `O=P(O)(O)OC[C@H](O)CO` [glycerol 3-phosphate], which “GlpT-dependent export from feeder vesicles, read by LC-MS of DOPA formed in util” value [1] is on record?
A: The value was “only when the feeder vesicles were equipped with the glycerol 3-phosphate exporter GlpT”.

B1: P. aeruginosa ArcD (Pseudomonas aeruginosa PAO1) (protein)
chain: MSQESSQKLRLGALTALVVGSMIGGGIFSLPQNMAASADVGAVLIGWAITAVGMLTLAFVFQTLANRKPELDGGVYAYAKAGFGDYMGFSSAWGYWISAWLGNVGYFVLLFSTLGYFFPIFGKGDTVAAIVCASVLLWALHFLVLRGIKEAAFINTVTTVAKVVPLFLFILICLFAFKLDIFTADIWGKSNPDLGSVMNQVRNMMLVTVWVFIGIEGASIFSSRAEKRSDVGKATVIGFITVLLLLVLVNVLSMGVMTQPELAKLQNPSMALVLEHVVGHWGAVLISVGLLISLLGALLSWVLLCAEIMFAAAKDHTMPEFLRRENANQVPANALWLTNICVQVFLVVVFFTSGDPDGMDPYTKMLLLATSMILIPYFWSAAYGLLLTLKGETYENDARERSKDLVIAGIAVAYAVWLLYAGGLKYLLLSALLYAPGAILFAKAKHEVGQPIFTGIEKLIFAAVVIGALVAAYGLYDGFLTL
Q: Which Km [2] does the source give for B1 here?
A: The Km was 7.5 µM.

B2: L. sakei ArcD (Latilactobacillus sakei) (protein)
chain: MTEEKPAKKIGLLALIALVISSSIGSGVFGLTSDLASASAPGPVLIAWVIVGFGILMLALSLNNLLMKEPELEGIFSYAEKGFGPFAGFISGWGYWLSAWLGNVTFATILMSALGYFFPIFKSRQNLPSILVASVLSWSLTYFVNRGVEGAAAINTLVTICKLIPLFVFIIFGIVLFKGHLFTQAFWNNMSSSFVAGDVMSQIKNCMMVMMWVFVGIEGASMLSARAEKKSDAGKATILGLVSLLAIYILASVLPYGYLTQDQLASIKQPAMLYIFEQMVGTWGGYFIGVGLIISILGAWLSWTMLPAETMLLMAKQNLLPAYFGRVNKKKAPTFALVVTAGLIQVFLFTLLFTTKAYNFAYSLCTASIIVCYMLVAAYQIKYSWAHLQEKGNRQQLLIGVLALLFEIAGILMAGVSYLLLCFIAYIPGIYFYGRARKNNGHQHFLSKGEWLITTIIVIGAIIGIWLVVSGKIVI
notes: N-terminal 10x His-tag (plasmid pNZarcD-LS), expressed in L. lactis JP9000 delta-arcD1 delta-arcD2, purified in DDM, reconstituted in DOPE/DOPG/DOPC liposomes; 54 kDa
Q: Which Km [3] does the source give for B2 here?
A: The Km was 26.8 µM.

Q: What about the Km [4] of the same molecule?
A: Its Km is 12.2 ± 1.5 µM.

Q: And the kcat [4]?
A: The kcat was 5.8 ± 1.2 s⁻¹.
